Laboratory results from US11597760 (dated 2023).

Experiments:
human C5 [1] = biological target: human C5 (human); experiment: SPR, pH 5.8, 37C
human C5 [2] = biological target: human C5 (human); experiment: SPR, pH 7.4, 37C
human C5 [3] = biological target: human C5 (human); experiment: SPR, pH 5.8, 37C; remark: listed apart in the source
human C5 [4] = biological target: human C5 (human); experiment: SPR, pH 7.4, 37C; remark: listed apart in the source

Kd (human C5 [1]) [nM] | Kd (human C5 [2]) [nM] | Kd (human C5 [3]) [nM] | Kd (human C5 [4]) [nM] | Binder
164 | 8.13 |  |  | CFA0307 (antibody, V domains shown) VH: QSLEESGGGLVKPGASLTLTCKASGIDFSNFYYICWVRQAPGKGLDLIACIYTVSGYTYYASWAKGRLTISKTSSTTVTLQMTSLTAADTATYFCARDLHAGITNLWGPGTLVTVSS VL: AIEMTQTPFSVSAAVGGTVTIKCQASQNIYSNLAWYQQKPGQRPKLLIYGASNLESGVPSRFKGSGSGTEYTLTISDLECADAATYYCLQGYSYSNVDDAFGGGTEVVVK
14 | 0.471 |  |  | 305LO5 (antibody, V domains shown) VH: QVQLVESGGGLVQPGGSLRLSCAASGFTSHSSYYVAWVRQAPGKGLEWVGAIYTGSGATYKASWAKGRFTISKDTSKNQVVLTMTNMDPVDTATYYCASDGGYDYPTHAMHYWGQGTLVTVSS VL: DVVMTQSPSSLSASVGDRVTITCQASQNIGSSLAWYQQKPGQAPRLLIYGASKTHSGVPSRFSGSGSGTDFTLTISSLQPEDVATYYCQSTKVGSSYGNHFGGGTKVEIK
 |  | 58.1 | 0.324 | 305LO20-SG115 (antibody, V domains shown) VH: QVQLVESGGGLVQPGGSLRLSCAASGFTVHSSYYMAWVRQAPGKGLEWVGAIFTGSGAEYKAEWAKGRVTISKDTSKNQVVLTMTNMDPVDTATYYCASDAGYDYPTHAMHYWGQGTLVTVSS VL: DIQMTQSPSSLSASVGDRVTITCRASQGISSSLAWYQQKPGQAPRLLIYGASETESGVPSRFSGSGSGTDFTLTISSLQPEDFATYYCQNTKVGSSYGNTFGGGTKVEIK
 |  | 64.1 | 0.277 | 305LO23-SG115 (antibody, V domains shown) VH: QVQLVESGGGLVQPGGSLRLSCAASGFTVHSSYYMAWVRQAPGKGLEWVSGIFTGSGATYKAEWAKGRVTISKDTSKNQVVLTMTNMDPVDTATYYCASDAGYDYPTHAMHYWGQGTLVTVSS VL: DIQMTQSPSSLSASVGDRVTITCRASQGISSSLAWYQQKPGQAPRLLIYGASTTQSGVPSRFSGSGSGTDFTLTISSLQPEDFATYYCQNTKVGSSYGNTFGGGTKVEIK
 |  | 59.9 | 0.349 | 305LO20-SG422 (antibody, V domains shown) VH: QVQLVESGGGLVQPGGSLRLSCAASGFTVHSSYYMAWVRQAPGKGLEWVGAIFTGSGAEYKAEWAKGRVTISKDTSKNQVVLTMTNMDPVDTATYYCASDAGYDYPTHAMHYWGQGTLVTVSS VL: DIQMTQSPSSLSASVGDRVTITCRASQGISSSLAWYQQKPGQAPRLLIYGASETESGVPSRFSGSGSGTDFTLTISSLQPEDFATYYCQNTKVGSSYGNTFGGGTKVEIK
246 | 3.91 |  |  | CFA0538 (antibody, V domains shown) VH: QSVEESGGRLVTPGTPLTLTCTASGFSLSSYYMNWVRQAPGKGLEWIGMIYGSGATYYASWAKGRFTISKTSSTTVDLKMTSLTTEDTATYFCARQIYSGDNNDNFWGPGTLVTVSS VL: AYDMTQTPASVEVAVGGTVTINCQASESISNWLAWYQQKPGQRPKLLIYRASTLASGVSSRFKGSGSGTQFTLTISGVECDDAATYYCQQDYSSSNVDNTFGGGTTVVVE
174 | 3.56 |  |  | CFA0501 (antibody, V domains shown) VH: QSVEESGGRLVTPGTPLTLTCTASGFSLSSYYMNWVRQAPGKGLEWIGMIYGSGATYYASWAKGRFTISKTSSTTVDLKMTSLTTEDTATYFCARQIYSGDNNDNFWGPGTLVTVSS VL: AYDMTQTPASVEVAVGGTVTINCQASESISNWLAWYQQKPGQRPKLLIYRASTLASGVSSRFKGSGSGTQFTLTISGVECDDAATYYCQQDYSSSNVDNTFGGGTKVVVE
138 | 0.351 |  |  | CFA0672 (antibody, V domains shown) VH: QSVEESGGRLVTPGTPLTLTCTASGFSLSGNAINWVRQAPGKGLEWIGCIYTGSDTTYYATWAKGRFTISKTSTTVDLKIASPTTEDTATYFCARGSGLWGPGTLVTVSS VL: DVVMTQTPASVSAPVGGTVTIKCQASQNIYSLLAWYQQKPGQPPKLLIYHTSDLASGVPSRFRGSGSGTEFTLTISDLECADAATYYCQCTAYGSSDVGGTFGGGTTVVVE
33.3 | 1.71 |  |  | CFA0666 (antibody, V domains shown) VH: QSVEESGGRLVTPGTPLTLTCTVSGFSLSTYAMGWVRQAPGKGLEWIGTIDTGDNSFYANWAKGRFTISKTSTTVDLKITSPTAEDTATYFCARNDGSVYNLFNLWGPGTLVTVSS VL: DVVMTQTPASVSAAVGGTVTIKCQASENIYSALSWYQQKPGLRPRLLIYYASTLASGVPSRFKGSRSGTEFTLTISDLECADAATYYCQQYYDINSVDNTFGGGTKVVVE
17 | 1.08 |  |  | CFA0675 (antibody, V domains shown) VH: QSVEESGGRLVTPGTPLTLTCTVSGFSLSTYAMGWVRQAPGKGLEWIGTIDTGDNSFYANWAKGRFTISRTSTTVDLKITSPTAEDTATYFCARNDGSVYNLFNLWGPGTLVTVSS VL: DVVMTQTPASVSAAVGGTVTIKCQASENIYSALSWYQQKPGLRPRLLIYYASTLASGVPSRFKGSRSGTEFTLTISDLECADAASYYCQQYYDINSVDNTFGGGTKVVVE
 |  | 79.5 | 0.321 | 305LO16-SG422 (antibody, V domains shown) VH: QVQLVESGGGLVQPGRSLRLSCAASGFTVHSSYYMAWVRQAPGKGLEWVGAIFTGSGAEYKAEWVKGRFTISRDNSKNTLYLQMNSLRAEDTAVYYCASDAGYDYPTHAMHYWGRGTLVTVSS VL: DIQMTQSPSSLSASVGDRVTITCRASQGISSSLAWYQQKPGKAPKLLIYGASETESGVPSRFSGSGSGTDFTLTISSLQPEDFATYYCQNTKVGSSYGNTFGGGTKVEIK
82.1 | 5.93 |  |  | CFA0599 (antibody, V domains shown) VH: QSVEESGGRLVTPGTPLTLTCTVSGLSLSDNTMTWVRQAPGKGLEWIGIISFGGDAYYASWAKGRFPISKTSTTVDLRITSPTTEDTATYFCARVGAGNIFWYFDLWGPGTLVTVSS VL: AYDMTQTPASVEVSVGGTVTIKCQASESIYSALAWYQQKPGQPPKLLIYSASTLASGVPSRFKGSGSGTEYTLTISDLECADAATYYCQQYYSSTNVHNSFGGGTTVVVE
75.2 | 8.99 |  |  | CFA0366 (antibody, V domains shown) VH: QSLEESGGDLVKPGASLSLTCTAAGLDFSSSYYMCWVRQAPGKGLEWIACIYAGSSGIIYYANWAKGRFTISRPSSTTVTLQMTSLTAADTATYFCATYPTYGDGGHAFNLWGPGTLVTVSS VL: AQVLTQTPSSVSAAVGGTVTINCQSSQSVYSSDYLSWYQQKPGQPPKLLIYEASKLASGVPPRFSGSGSGTQFTLTISGVQCDDAATYYCQGTYYSSGWYFAFGGGTEVVVK
0.184 | 0.122 |  |  | CFA0330 (antibody, V domains shown) VH: QSLEESGGDLVEPGASLTLTCTASGFSWNSGYDMCWVRQAPGKGLEWIACIYTGSSANTAYANWAKGRFTISKTSSTTVTLQMTGLTAADTATYFCARHDDYFFDLWGPGTLVTVSS VL: DVVMTQTPASVSESVGGTVTINCQASQSIGNNLAWYQQKPGQPPKLLIYDASNLASGVPSRFKGSRSGTEPTLTNTLTISGVQCADVATYYCQSGWYGNSYVAAFGGGTEVVVK
0.0595 | 0.155 |  |  | CFA0341 (antibody, V domains shown) VH: QSVEESGGRLVTPGTPLTLTCTVSGIDLSSYTMGWVRQAPGKGLECIGYIHSFGSTYYASWAKGRFTISKTSTTVDLEITSPTTEDTATYFCARDVGGSSGWDLWGQGTLVTVSS VL: DVVMTQTPSSVSAAVGGTVTIKCQASENIYSNLAWYQQKPGQPPKRLIYDASDLASGVPSRFSGSGYGTQFTLTISGVQCEDAATYYCQANYDSTSSSFGNVFGGGTEVVVK
